Measured values taken from US20020173481A1.

Target: endogenous GCSF receptor of 32Dcl3 cells
Assay: cell-based or functional assay

kinase activity of Bmx in 32Dcl3 cells: 1.7 fold
Substance: hGCSF (from UniProt P09919 31-204) (ligand)
